In patent US20250276077A1, “EPHA2 ANTIBODIES” (Immunome, Inc., priority 2022, published 2025):

Target: T1, human 4-1BB (Homo sapiens, UniProt Q07011)
T1 construct: host or cells: 4-1BB reporter cells of the Promega bioassay, alone or co-cultured with tumor cells (A549, MDA-MB-231, CT26, PC3, SKOV3)
Assay: 4-1BB activation, inducible reporter cell system with or without tumor cells
Assay type: cell-based
Settings: reporter cells alone or co-cultured with A549 tumor cells; 5 hours
Procedure: After confirming that they retained the ability to bind to PC3 cells, the EphA2-4-1BB bispecific antibodies were assayed for their ability to activate human 4-1BB using an inducible reporter cell system (Promega cat JA2351). […] reporter cells were either cultured alone with the EphA2-4-1BB bispecific antibodies or co-cultured with A549 tumor cells that had been treated with the EphA2-4-1BB bispecific antibodies. The 4-1BB antibody Urelumab (AB-009811) was included as a non-tumor targeting control. After 5 hours of culture, 4-1BB activation was determined from the reporter cells by measuring bioluminescence output.
The activation assay was repeated using MDA-MB-231, CT26, or PC3 tumor cells. […] FIG. 19A-D.
Constructs that comprise AB-008873 fused with h41BBL (THD)3-2 were generated and assayed for the ability to activate 4-1BB for tumor cell lines A549, MDA-MB231, SKOV3, and PC3, as described above for the EphA2-4-1BB bispecific antibodies. AB-009811 was included as a positive control and 5554-41BBL (THD) 3-10 or 5554-41BBL (THD) 3-2 was used as a negative control. […] FIG. 19E.

T1 sequence (Q07011 24-255): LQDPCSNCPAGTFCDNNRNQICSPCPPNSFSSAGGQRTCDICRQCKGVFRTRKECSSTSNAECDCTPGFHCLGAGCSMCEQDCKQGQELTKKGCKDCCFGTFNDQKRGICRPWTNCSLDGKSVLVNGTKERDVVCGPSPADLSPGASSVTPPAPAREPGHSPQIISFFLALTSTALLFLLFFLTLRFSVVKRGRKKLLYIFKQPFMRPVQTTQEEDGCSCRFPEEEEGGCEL

Substance: Urelumab: 4-1BB antibody included as a non-tumor targeting control
- 4-1BB activation with and without tumor cells: activated 4-1BB with us without the presence of tumor cells
